Reference: patent publication US20050049403A1 (CAMBRIDGE ANTIBODY TECHNOLOGY, published 2005)

Legend:
[1] = molecular target: T1, phage peptide display clone VESTSLQFRG (fourth clone, printed as Clone 3); assay: phage ELISA on coated 6B1 IgG4 after four rounds of panning
T1 construct: also called Clone 3 (second of that label)
T1 peptide: VESTSLQFRG
Description: (§1) Purified 6B1 IgG4 antibody at 10 μg/ml in 4 ml of PBS was coated onto a plastic tube (Nunc; maxisorp) by incubating overnight at 4° C. After washing and blocking with MPBS (see Example 1) an aliquot of the peptide library containing 5×10¹³ phage in 4 ml 3% MPBS was added to the tube and incubated at room temperature for 1.5 hours. The tube was washed 10 times with PBST(0.1%), then 10 times with PBS. Bound phage particles were eluted from the tube by adding 4 ml of 100 mM triethylamine and incubating the tube stationary for 10 minutes at room temperature. The eluted phage were then added to a tube containing 2 ml 1M-Tris.HCl (pH7.4) and 10 ml 2YT broth. The phage were then added to 20ml of logarithmically growing E. coli TG1 cells and grown for 1 hour shaking at 100 rpm at 37° C. The infected cells were then plated on 2YT agar medium with 15 μg/ml tetracycline in 243 mm×243 mm dishes (Nunc). Plates were incubated at 30° C. for 18 hours. Colonies were scraped off the plates into 10 ml 2TY broth containing 15% (v/v) glycerol for storage at −70° C.
(§2) These clones were screened for clones that bound specifically to the antibody 6B1 in ELISA. Cells from the master plates were used to inoculate 96 well tissue culture plates containing 100 μl 2YT broth (containing 15 μg/ml tetracycline) per well and grown overnight with gentle shaking at 100 rpm at 30° C. The plates were then centrifuged at 2000 rpm. The 100 μl phage supernatants from each well were recovered and each was mixed with 100 μl of 4% skimmed milk powder in 2×PBS. 100 μl of each of these was then assayed by phage ELISA. Purified 6B1 IgG4 antibody at 10 μg/ml in PBS was coated onto flexible microtitre plates by incubating overnight at 4° C. Control plates coated with an irrelevant IgG4 antibody at 10 μg/ml were also prepared. The ELISAs were performed as described in Example 1, and visualised with the chromagenic substrate pNPP (Sigma).

[2] = molecular target: T2, phage peptide display Clone 2 (DPMDMVLKLC); assay: as above
T2 peptide: DPMDMVLKLC
Description: as §1, §2

[3] = molecular target: T3, phage peptide display Clone 1 (RQLSLQQRMH); assay: as above
T3 peptide: RQLSLQQRMH
Description: as §1, §2

[4] = molecular target: T4, phage peptide display Clone 3 (WSEFMRQSSL); assay: as above
T4 peptide: WSEFMRQSSL
Description: as §1, §2

recombinant human TGFβ2 = molecular target: T5, recombinant human TGFβ2 (human, UniProt P61812 303-414); assay: BIAcore 2000, antigen immobilised, antibody as analyte
T5 construct: mature; also called TGFbeta2; rhTGFβ2
T5 sequence (looked up): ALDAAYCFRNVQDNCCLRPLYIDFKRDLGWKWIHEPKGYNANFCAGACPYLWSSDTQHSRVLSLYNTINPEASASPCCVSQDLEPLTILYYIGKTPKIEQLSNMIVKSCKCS
Description: The immobilisation of ligand is automated by the BIACore 2000 machine, and all steps are carried out in the autosampler or in the flowcell, on the dextran surface of the chip. The buffer used throughout the immobilisation procedure, and the analysis of samples is Hepes-buffered saline (HBS) with a surfactant (Pharmacia Biosensor). The chips (Pharmacia, CM5), have dextran coating on a thin layer of gold. NHS at 100 mM and EDC at 400 mM are mixed by the autosampler, and then a fixed volume is injected over the flowcell surface. This is followed by an injection of antigen in a suitable buffer. In the case of TGFβ, a surface of the correct density was given by using 25-30 μg/ml solution of TGFβ2 (AMS) OR TGFβ3 (R & D systems) in 10 mM acetate. After injection of the ligand, the chip is blocked using 1M ethanolamine. The total amount of TGFβ bound was assessed from the total increase in resonance units over this period.
To determine the kinetic parameters, a series of dilutions of the antibody samples was made in HBS from about 500 μg/ml down to less than 1 μg/ml, usually through doubling dilutions. After the antibody has been injected over the antigen surface, the surface is washed with HBS, then regenerated by stripping off the bound antibody with a pulse of 100 mM HCl. At the higher concentrations of antibody the antigen on the chip surface is saturated, and the off rate is determined on washing with buffer in the dissociation phase. For determination of the on-rate, lower concentrations of antibody are used, giving a linear binding phase in the sensorgram, allowing kₒₙ determination.
6B1 IgG4 was purified from the GS/NS0 cell line of Example 10 as in Example 2. 6B1 single chain Fv was expressed intracellularly in E. coli, refolded in vitro (using the methodology of WO94/18227), and purified to give a homogeneous product. The values of kₒₙ and koff were determined for 6B1 IgG4 for binding to both TGFβ2 and TGFβ3, and for the single-chain Fv 6B1 for binding to TGFβ2. The dissociation constant was calculated by dividing koff by kₒₙ.

[5] = molecular target: T6, TGFβ2 in rat tissue sections (rat, UniProt Q07257 331-442, limits assumed); assay: immunohistochemistry, 6B1 IgG4 at 500 ng/ml on pronase E treated rat kidney sections
T6 construct: also called rat TGFβ2
T6 sequence (looked up): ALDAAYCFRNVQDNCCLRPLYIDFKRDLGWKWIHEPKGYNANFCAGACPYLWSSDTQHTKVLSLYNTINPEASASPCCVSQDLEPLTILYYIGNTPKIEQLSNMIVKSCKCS
Description: Paraffin embedded rat tissues were de-waxed and rehydrated through an alcohol series. The sections were then treated with 0.1% pronase E for exactly 8 min and then washed in water. TGFβ2 was detected in the sections using 6B1 IgG4 at 500 ng/ml following the protocol provided with a Vectastain ABC (avidin-biotin-complex) kit from Vector Laboratories. On kidney sections, bound antibody was located with alkaline phosphatase and peroxidase was used on rat brain tissues.

B1: 6B1 IgG4 (antibody, V domains shown)
VH: EVQLVESGGGVVQPGRSLRLSCAASGFTFSSYGMHWVRQAPGKGLEWVAVIWYDGSNKYYADSVKGRFTISRDNSKNTLYLQMDSLRAEDTAVYYCGRTLESSLWGQGTLVTVSS
VL: SSELTQDPAVSVALGQTVRITCQGDSLRSYYASWYQQKPGQAPVLVIYGKNNRPSGIPDRFSGSSSGNTASLTITGAQAEDEADYYCNSRDSSSTHRGVFGGGTKLTVLG
notes: Whole antibody: human gamma 4 and human lambda constant regions; FITC-labelled in the human tissue study; also called antibody 6B1
- binding result [1]: binds
- binding result [2]: binds
- binding result [3]: binds
- binding result [4]: binds
- koff (recombinant human TGFβ2): 0.000336 s⁻¹
- kon (recombinant human TGFβ2): 384000 M⁻¹ s⁻¹
- binding result [5]: binds
